# In the supplement of paper PMC9732359:
# ± gives the uncertainty stated by the source.
# Assay: protein stability index of a GFP-peptide fusion (yeast GPS) (PSI 1-4); higher = more stable; sorted into four equal gates, so the index is relative within each strain
# Details: doa10∆
# How it was run: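 Plasmids in a pooled yeast library fused tiled 17-residue yeast protein peptides downstream of GFP and also expressed Cherry. Mid-log cultures grown without leucine were sorted into four equal gates by GFP/Cherry fluorescence ratio. Each gate's plasmids were PCR-amplified and Illumina-sequenced, and reads were matched to strains by barcodes. The protein stability index is derived by multiplying each gate's read frequency by its gate number and summing the results.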
row,Sequence,protein stability index
1,TKKISNFNSSLHKRQQF [YJL039C/NUP192],2.73 ± 0.13
2,TKLKNAVQNESVSSPIE [QCR2],3.05 ± 0.11
3,TKLRAFVYNKVNETEAI [YGR119C/NUP57],2.3 ± 0.084
4,TKPSDLTIKDIVLGVKD [RPO21],2.51 ± 0.085
5,TKPSLRKASCIWLLSYI [ECM29],1.75 ± 0.054
6,TKRLGTPESVKPANASH [RGR1],2.37 ± 0.08
7,TKRWYKNAGLGFKTPKT [RPS11A],3.32 ± 0.096
8,TKTEALLSDVVSTSSGA [YJL041W/NSP1],2.73 ± 0.13
9,TKYFEPTSTENNKKVVG [ECM29],2.87 ± 0.14
10,TLEQKVNLENPIPIAVL [FAS1],1.35 ± 0.048
11,TLGNALRYVIMKNPDVE [RPC19],2.93 ± 0.091
12,TLLIAIRGSNRDLKPSN [YML103C/NUP188],1.92 ± 0.18
13,TLLVIRRLHKVLRPFLL [SNF2],1.26 ± 0.12
14,TLSFNFSQKANKTKAVD [YOR098C/NUP1],2.03 ± 0.085
15,TLSKTTDSSALTYDRLE [PRE9],3.16 ± 0.1
16,TLSVSHGINLQNKKNLK [SSN2],2.7 ± 0.062
17,TLTDILEDELYHTNPGH [RPN4],3.04 ± 0.055
18,TLYSVKSKEDMKQLKFF [SNU114],3.28 ± 0.17
19,TNAKIPQFDSTQPKSSS [SSN3],3.03 ± 0.042
20,TNELWARLAILKERAKN [YGR119C/NUP57],3.26 ± 0.13
21,TNGGLFGSGTQNNNTLG [YGR119C/NUP57],3.25 ± 0.11
22,TNKDIICQIISSTITGD [RPL5],2.6 ± 0.055
23,TNKSKRPSITEAMMLKE [MED1],2.91 ± 0.12
24,TNLKMKRKWSYVLYAKI [RRP43],1.71 ± 0.058
25,TNLQRNVDRLYKLNVRS [NUT2],3.66 ± 0.19
26,TNQDGLKFVKVRVRTTK [RPB2],2.42 ± 0.084

row,Sequence,protein stability index
1,TNQKDTNDHVDKRTKID [ISW2],2.77 ± 0.069
2,TNTFGSNSAGTSLFGSS [YJL041W/NSP1],3.1 ± 0.083
3,TNVNVKIKDVQQQIESN [SMC3],3.19 ± 0.088
4,TNVYSKDLVIVSNLMGR [RPB3],3.04 ± 0.073
5,TPANNGENAAEKPDNSN [SNF2],1.89 ± 0.075
6,TPAPKISYKKGAASNRT [RPL36A],2.98 ± 0.072
7,TPDATKIKAILESVGIE [RPP2A],2.31 ± 0.084
8,TPGELVTDDPIWMRGHG [RRP4],2.65 ± 0.19
9,TPGEVASKAIVQMAKIL [MCD1],3.26 ± 0.14
10,TPKGNESEQELSLHTGF [MTR3],3.22 ± 0.11
11,TPKLQTQLSYLISSSLS [YCS4],1.95 ± 0.047
12,TPLLENISISTSELGND [BRR2],2.16 ± 0.058
13,TPNFDDVLKENNDADKG [RIP1],1.51 ± 0.093
14,TPNLWAEQPLPVSPLDI [RPS2],1.41 ± 0.045
15,TPNVREEKQKSYKFPRG [PUP1],3.29 ± 0.13
16,TPSTNEPYARVSGDLNP [FAS1],2.96 ± 0.074
17,TQDDFTTSVDVMLKGIV [SRP54],1.63 ± 0.1
18,TQIANAGASPMVNTQQP [PRE4],2.94 ± 0.11
19,TQPKAEATQDDDFDMLF [NUT1],2.73 ± 0.069
20,TQPKSSSSMDMQANTNA [SSN3],2.55 ± 0.06
21,TQTESKKEENETISNVA [SNF2],3.07 ± 0.056
22,TQVFNILLQHKEKLTVQ [POP1],3.1 ± 0.084
23,TQVNILKENNAILQKSL [YIL149C/MLP2],2.44 ± 0.06
24,TQVYKLGLAKSVHHARV [RPS9A],1.94 ± 0.089
25,TRAGGLGINLVTADTVI [ISW2],2.19 ± 0.061
26,TRIKLLLTKNVSCYRPR [RPS6A],2.11 ± 0.22

row,Sequence,protein stability index
1,TRLYDYEIRDIDQDIHG [SSN2],3.54 ± 0.11
2,TRPLTLSHGSLEHVLLV [FAS1],2.39 ± 0.068
3,TRPQMPSRTRETATSER [GRR1],2.85 ± 0.062
4,TRRFVNVTLVNGKRRMN [RPS30A],1.67 ± 0.055
5,TRSALKLVRESELLGGT [QCR2],2.51 ± 0.29
6,TRSWRPPQAGDRSLADD [RPB8],3.1 ± 0.11
7,TRVRLPSGAKKVISSDA [RPL2A],3.25 ± 0.092
8,TRVTRLSLQRANVEILA [CSL4],1.64 ± 0.042
9,TSAIEVLVGSCAYTGTG [RPN1],3.06 ± 0.067
10,TSDLLGSHLSETEFPPF [ECM29],2.94 ± 0.049
11,TSHYQNYHPNASITPYK [RPN4],2.84 ± 0.081
12,TSIARIGDYILKSPVLS [QCR7],1.5 ± 0.045
13,TSKMNLSEDVNLETLVT [RPT2],2.6 ± 0.14
14,TSKPVFSFGAATPSAKE [YLR335W/NUP2],2.95 ± 0.046
15,TSKWLNSITSGGLKSCD [YDL116W/NUP84],2.94 ± 0.097
16,TSLQGTYEAIEITDAYC [YMR129W/POM152],2.63 ± 0.053
17,TSLVANENDKIYLLFQS [YDL116W/NUP84],2.37 ± 0.058
18,TSMNGVHNTVAAGNASS [SNF5],2.73 ± 0.043
19,TSPVTGATEKRKCAKPF [CSL4],1.89 ± 0.23
20,TSSAPAQNQGMFGAKPA [YGL172W/NUP49],2.44 ± 0.11
21,TSTKDKNSSTSNTEPIP [MED1],3.17 ± 0.058
22,TSTPPPPPAPHNLHPQI [SNF5],3.2 ± 0.058
23,TTAVDALQKGLKDLMDL [RPC19],3.58 ± 0.23
24,TTIEEIFLHSLPVKEFQ [RPS2],2.82 ± 0.067

# Same assay, conditions: pdr5∆
row,Sequence,protein stability index
1,TKKISNFNSSLHKRQQF [YJL039C/NUP192],2.79 ± 0.12
2,TKLKNAVQNESVSSPIE [QCR2],3.1 ± 0.084
3,TKLRAFVYNKVNETEAI [YGR119C/NUP57],2.69 ± 0.064
4,TKPSDLTIKDIVLGVKD [RPO21],2.15 ± 0.1
5,TKPSLRKASCIWLLSYI [ECM29],1.88 ± 0.051
6,TKRLGTPESVKPANASH [RGR1],2.63 ± 0.077
7,TKRWYKNAGLGFKTPKT [RPS11A],3.42 ± 0.12
8,TKTEALLSDVVSTSSGA [YJL041W/NSP1],3.1 ± 0.2
9,TKTVKRASKALIERYYP [RPS17A],2.57 ± 0.21
10,TKYFEPTSTENNKKVVG [ECM29],3.19 ± 0.17
11,TLEQKVNLENPIPIAVL [FAS1],1.4 ± 0.041
12,TLGNALRYVIMKNPDVE [RPC19],2.73 ± 0.059
13,TLLIAIRGSNRDLKPSN [YML103C/NUP188],2.41 ± 0.13
14,TLLVIRRLHKVLRPFLL [SNF2],1.34 ± 0.093
15,TLSFNFSQKANKTKAVD [YOR098C/NUP1],1.55 ± 0.059
16,TLSKTTDSSALTYDRLE [PRE9],2.99 ± 0.13
17,TLSVSHGINLQNKKNLK [SSN2],2.62 ± 0.054
18,TLTDILEDELYHTNPGH [RPN4],3.25 ± 0.049
19,TLYSVKSKEDMKQLKFF [SNU114],3.33 ± 0.13
20,TNAKIPQFDSTQPKSSS [SSN3],3.01 ± 0.044
21,TNELWARLAILKERAKN [YGR119C/NUP57],2.75 ± 0.2
22,TNGGLFGSGTQNNNTLG [YGR119C/NUP57],2.91 ± 0.091
23,TNKDIICQIISSTITGD [RPL5],2.13 ± 0.057
24,TNKSKRPSITEAMMLKE [MED1],3.03 ± 0.087

row,Sequence,protein stability index
1,TNLKMKRKWSYVLYAKI [RRP43],2.37 ± 0.042
2,TNLQRNVDRLYKLNVRS [NUT2],3.62 ± 0.2
3,TNQDGLKFVKVRVRTTK [RPB2],3.05 ± 0.12
4,TNQKDTNDHVDKRTKID [ISW2],3.05 ± 0.07
5,TNTFGSNSAGTSLFGSS [YJL041W/NSP1],2.84 ± 0.09
6,TNVNVKIKDVQQQIESN [SMC3],3.17 ± 0.081
7,TNVYSKDLVIVSNLMGR [RPB3],2.97 ± 0.059
8,TPANNGENAAEKPDNSN [SNF2],2.24 ± 0.098
9,TPAPKISYKKGAASNRT [RPL36A],3.22 ± 0.06
10,TPDATKIKAILESVGIE [RPP2A],3.2 ± 0.16
11,TPGELVTDDPIWMRGHG [RRP4],2.9 ± 0.13
12,TPGEVASKAIVQMAKIL [MCD1],3 ± 0.11
13,TPKGNESEQELSLHTGF [MTR3],3.13 ± 0.1
14,TPKLQTQLSYLISSSLS [YCS4],2.14 ± 0.052
15,TPLLENISISTSELGND [BRR2],2.05 ± 0.049
16,TPNFDDVLKENNDADKG [RIP1],1.35 ± 0.12
17,TPNLWAEQPLPVSPLDI [RPS2],2.07 ± 0.06
18,TPNVREEKQKSYKFPRG [PUP1],2.74 ± 0.12
19,TPSTNEPYARVSGDLNP [FAS1],2.6 ± 0.077
20,TQDDFTTSVDVMLKGIV [SRP54],2.23 ± 0.081
21,TQIANAGASPMVNTQQP [PRE4],3.07 ± 0.09
22,TQPKAEATQDDDFDMLF [NUT1],3.15 ± 0.051
23,TQPKSSSSMDMQANTNA [SSN3],2.43 ± 0.046
24,TQTESKKEENETISNVA [SNF2],3.1 ± 0.048

row,Sequence,protein stability index
1,TQVFNILLQHKEKLTVQ [POP1],3.11 ± 0.066
2,TQVNILKENNAILQKSL [YIL149C/MLP2],2.55 ± 0.062
3,TQVYKLGLAKSVHHARV [RPS9A],1.48 ± 0.053
4,TRAGGLGINLVTADTVI [ISW2],2.13 ± 0.054
5,TRIKLLLTKNVSCYRPR [RPS6A],2.64 ± 0.14
6,TRLYDYEIRDIDQDIHG [SSN2],3.55 ± 0.16
7,TRPLTLSHGSLEHVLLV [FAS1],2.72 ± 0.076
8,TRPQMPSRTRETATSER [GRR1],3.12 ± 0.06
9,TRRFVNVTLVNGKRRMN [RPS30A],1.51 ± 0.038
10,TRSALKLVRESELLGGT [QCR2],2.5 ± 0.24
11,TRSWRPPQAGDRSLADD [RPB8],3.09 ± 0.16
12,TRVRLPSGAKKVISSDA [RPL2A],3.27 ± 0.084
13,TRVTRLSLQRANVEILA [CSL4],1.78 ± 0.043
14,TSAIEVLVGSCAYTGTG [RPN1],3.35 ± 0.062
15,TSDLLGSHLSETEFPPF [ECM29],3.17 ± 0.062
16,TSHYQNYHPNASITPYK [RPN4],3.11 ± 0.074
17,TSIARIGDYILKSPVLS [QCR7],1.72 ± 0.045
18,TSKMNLSEDVNLETLVT [RPT2],2.85 ± 0.16
19,TSKPVFSFGAATPSAKE [YLR335W/NUP2],3.08 ± 0.053
20,TSKWLNSITSGGLKSCD [YDL116W/NUP84],3.17 ± 0.089
21,TSLQGTYEAIEITDAYC [YMR129W/POM152],2.86 ± 0.059
22,TSLVANENDKIYLLFQS [YDL116W/NUP84],2.59 ± 0.05
23,TSMNGVHNTVAAGNASS [SNF5],2.74 ± 0.037
24,TSPVTGATEKRKCAKPF [CSL4],1.27 ± 0.15
